Patent US10800847

Tests used:
[1] = target: HLA-A*3401 (A34) single antigen on beads (human); assay: Luminex, iBead vs regular bead, IVIg 1:8
[2] = target: HLA-A*3101 (A31) single antigen on beads (human); assay: Luminex, iBead vs regular bead, IVIg 1:8
[3] = target: HLA-A*3001 (A30) single antigen on beads (human); assay: Luminex, iBead vs regular bead, IVIg 1:8
[4] = target: HLA-A*3601 (A36) single antigen on beads (human); assay: Luminex, iBead vs regular bead, IVIg 1:8
[5] = target: HLA-A*3301 (A33) single antigen on beads (human); assay: Luminex, iBead vs regular bead, IVIg 1:8
[6] = target: HLA-A*3402 (A34) single antigen on beads (human); assay: Luminex, iBead vs regular bead, IVIg 1:8
[7] = target: HLA-A*6801 (A68) single antigen on beads (human); assay: Luminex, iBead vs regular bead, IVIg 1:8
[8] = target: HLA-A*6601 (A66) single antigen on beads (human); assay: Luminex, iBead vs regular bead, IVIg 1:8
[9] = target: HLA-A*2902 (A29) single antigen on beads (human); assay: Luminex, iBead vs regular bead, IVIg 1:8
[10] = target: HLA-A*3303 (A33) single antigen on beads (human); assay: Luminex, iBead vs regular bead, IVIg 1:8
HLA-B*1503 (B72) (human) [11] = assay: iBead MFI against regular-bead MFI, IVIg diluted 1:8
HLA-B*1401 (B64) (human) [12] = assay: as above
HLA-B*1801 (B18) (human) [13] = assay: as above
HLA-B*1513 (B77) (human) [14] = assay: as above
HLA-B*1402 (B65) (human) [15] = assay: as above
HLA-B*1512 (B76) (human) [16] = assay: as above
HLA-B*0702 (B7) (human) [17] = assay: as above
HLA-B*1501 (B62) (human) = assay: as above
[18] = target: Serum albumin on negative control beads (HSA/BSA) (human or bovine); assay: as above
HLA-B*1511 (B75) (human) [19] = assay: as above
HLA-B*1510 (B71) (human) [20] = assay: as above
HLA-B*0801 (B8) (human) [21] = assay: as above
HLA-B*1503 (B72) (human) [22] = assay: Luminex regular beads (#7), IVIg diluted 1:8
HLA-B*1401 (B64) (human) [23] = assay: Luminex regular beads (#7), IVIg diluted 1:8
HLA-B*1801 (B18) (human) [24] = assay: Luminex regular beads (#7), IVIg diluted 1:8
HLA-B*1513 (B77) (human) [25] = assay: Luminex regular beads (#7), IVIg diluted 1:8
HLA-B*1402 (B65) (human) [26] = assay: Luminex regular beads (#7), IVIg diluted 1:8
HLA-B*1302 (B13) (human) [27] = assay: Luminex regular beads (#7), IVIg diluted 1:8
HLA-B*1512 (B76) (human) [28] = assay: Luminex regular beads (#7), IVIg diluted 1:8
HLA-B*0702 (B7) (human) [29] = assay: Luminex regular beads (#7), IVIg diluted 1:8
HLA-B*1301 (B13) (human) [30] = assay: Luminex regular beads (#7), IVIg diluted 1:8
HLA-B*1502 (B75) (human) [31] = assay: Luminex regular beads (#7), IVIg diluted 1:8
HLA-B*1516 (B63) (human) = assay: Luminex regular beads (#7), IVIg diluted 1:8
[32] = target: Serum albumin on negative control beads (HSA/BSA) (human or bovine); assay: Luminex regular beads (#7), IVIg diluted 1:8
HLA-B*1511 (B75) (human) [33] = assay: Luminex regular beads (#7), IVIg diluted 1:8
HLA-B*1510 (B71) (human) [34] = assay: Luminex regular beads (#7), IVIg diluted 1:8
HLA-B*0801 (B8) (human) [35] = assay: Luminex regular beads (#7), IVIg diluted 1:8
[36] = target: HLA-A*3001 (A30) single antigen on beads (human); assay: Luminex iBeads (#6), IVIg 1:8
[37] = target: HLA-A*6801 (A68) single antigen on beads (human); assay: Luminex iBeads (#6), IVIg 1:8
[38] = target: HLA-A*6602 (A66) single antigen on beads (human); assay: Luminex iBeads (#6), IVIg 1:8
HLA-B*1302 (B13) (human) [39] = assay: iBead MFI against regular-bead MFI, IVIg diluted 1:8
HLA-B*1301 (B13) (human) [40] = assay: as above
HLA-B*1502 (B75) (human) [41] = assay: as above
[42] = target: HLA-A*6901 (A69) single antigen on Luminex beads (human); assay: Luminex single antigen bead assay, iBeads vs regular beads, IVIg 1:8
[43] = target: HLA-A*8001 (A80) single antigen on Luminex beads (human); assay: as above

Substance | Difference % (iBead MFI vs regular bead MFI) [1] [%] | Difference % (iBead MFI vs regular bead MFI) [2] [%] | Difference % (iBead MFI vs regular bead MFI) [3] [%] | Difference % (iBead MFI vs regular bead MFI) [5] [%] | Difference % (iBead MFI vs regular bead MFI) [8] [%] | Difference % (iBead MFI vs regular bead MFI) [9] [%] | Difference % (iBead MFI vs regular bead MFI) [10] [%] | Difference % (iBead vs regular bead) (HLA-B*1503 (B72) (human) [11]) [%] | Difference % (iBead vs regular bead) (HLA-B*1401 (B64) (human) [12]) [%] | Difference % (iBead vs regular bead) (HLA-B*1801 (B18) (human) [13]) [%] | Difference % (iBead vs regular bead) (HLA-B*1513 (B77) (human) [14]) [%] | Difference % (iBead vs regular bead) (HLA-B*1512 (B76) (human) [16]) [%] | Difference % (iBead vs regular bead) (HLA-B*0702 (B7) (human) [17]) [%] | Difference % (iBead vs regular bead) (HLA-B*1511 (B75) (human) [19]) [%] | Difference % (iBead vs regular bead) (HLA-B*1510 (B71) (human) [20]) [%] | Difference % (iBead vs regular bead) (HLA-B*0801 (B8) (human) [21]) [%] | MFI (HLA-B*1503 (B72) (human) [22]) [MFI] | MFI (HLA-B*1513 (B77) (human) [25]) [MFI] | MFI (HLA-B*1402 (B65) (human) [26]) [MFI] | MFI (HLA-B*1302 (B13) (human) [27]) [MFI] | also measured
IVIg GamaSTAN S/D (Talecris Biotherapeutics, USA) (antibody) | 42 | 189 | -32 | 68 | 86 | 348 | 125 | -100 | -85 | 0 | -27 | 125 | -10 | -16 | -43 | -63 | 689 | 1240 | 670 | 2220 | Difference % (iBead MFI vs regular bead MFI) [4]: 145%; Difference % (iBead MFI vs regular bead MFI) [6]: 76%; Difference % (iBead MFI vs regular bead MFI) [7]: 230%; Difference % (iBead vs regular bead) (HLA-B*1402 (B65) (human) [15]): -100%; Difference % (iBead vs regular bead) (HLA-B*1501 (B62) (human)): 270%; Difference % (iBead vs regular bead) [18]: 33%; MFI (HLA-B*1401 (B64) (human) [23]): 1750 MFI; MFI (HLA-B*1801 (B18) (human) [24]): 0 MFI; MFI (HLA-B*1512 (B76) (human) [28]): 2660 MFI; MFI (HLA-B*0702 (B7) (human) [29]): 2220 MFI; MFI (HLA-B*1301 (B13) (human) [30]): 2240 MFI; MFI (HLA-B*1502 (B75) (human) [31]): 526 MFI; MFI (HLA-B*1516 (B63) (human)): 3540 MFI; MFI [32]: 3790 MFI; MFI (HLA-B*1511 (B75) (human) [33]): 2820 MFI; MFI (HLA-B*1510 (B71) (human) [34]): 857 MFI; MFI (HLA-B*0801 (B8) (human) [35]): 884 MFI; MFI [36]: 624 MFI; MFI [37]: 634 MFI; MFI [38]: 4320 MFI
IVIg Gamunex-C Lot NKLG1 (antibody) | 47 | 1960 | 112 | 163 | 722 | 243 | 599 | -79 | -33 | 112 | -45 | 244 | 39 | -17 | 1 | -31 | 2380 | 4270 | 2250 | 3100 | Difference % (iBead vs regular bead) (HLA-B*1302 (B13) (human) [39]): -45%; Difference % (iBead vs regular bead) (HLA-B*1301 (B13) (human) [40]): -31%; Difference % (iBead vs regular bead) (HLA-B*1502 (B75) (human) [41]): 32%; MFI (HLA-B*1512 (B76) (human) [28]): 816 MFI; MFI (HLA-B*0702 (B7) (human) [29]): 1540 MFI; MFI (HLA-B*1502 (B75) (human) [31]): 1520 MFI; MFI (HLA-B*1516 (B63) (human)): 3760 MFI; MFI [32]: 10800 MFI; MFI (HLA-B*1511 (B75) (human) [33]): 4060 MFI; MFI (HLA-B*1510 (B71) (human) [34]): 1430 MFI; MFI [36]: 4470 MFI; MFI [37]: 3150 MFI; Difference % (iBead MFI against regular bead MFI) [42]: 122%; Difference % (iBead MFI against regular bead MFI) [43]: 24%
